Assay results as given in article PMC12714728 (npj Viruses, 2025).
Positions of bridges follow the written chain, without caps; N, C: chain ends. No end group written: not given here.

B1: cyclic peptide CP11 (peptide)
peptide: CYRDPLGVAGGMC
modifications: disulfide 1-13
notes: source: synthetic peptide (manual solid phase Fmoc chemistry, iodine oxidation, RP-HPLC)
B2: cyclic peptide CP14 (peptide)
peptide: LYEDPLGVAGGMG
modifications: head-to-tail lactam cyclized (no template)
notes: source: synthetic peptide (manual solid phase Fmoc chemistry, RP-HPLC)
B3: cyclic peptide CP8 (peptide)
peptide: CLYRDPLGVAGGMGC
modifications: not fully specified (bridges); cysteine pairing not given here
notes: as for B1

Target: H1/Bri HA, A/Brisbane/59/07 (H1N1) hemagglutinin, C-terminally biotinylated, for the CCI assay (influenza A virus A/Brisbane/59/07 …, C-terminal biotin)
Experiment: cell-based or functional assay

Binder | conformational change inhibition assay (CCI) IC50 [µM]
B1 | 8.52
B2 | 1.24
CYRDPLGVAGEMC (not fully specified; cysteine pairing not given here) [cyclic peptide CP13] | 39.4
B3 | 0.54
